This is an account of results in publication PMC2908215.

In this assay the target is T1, MLH1 p.Arg659Leu (human), P40692.
T1 chain: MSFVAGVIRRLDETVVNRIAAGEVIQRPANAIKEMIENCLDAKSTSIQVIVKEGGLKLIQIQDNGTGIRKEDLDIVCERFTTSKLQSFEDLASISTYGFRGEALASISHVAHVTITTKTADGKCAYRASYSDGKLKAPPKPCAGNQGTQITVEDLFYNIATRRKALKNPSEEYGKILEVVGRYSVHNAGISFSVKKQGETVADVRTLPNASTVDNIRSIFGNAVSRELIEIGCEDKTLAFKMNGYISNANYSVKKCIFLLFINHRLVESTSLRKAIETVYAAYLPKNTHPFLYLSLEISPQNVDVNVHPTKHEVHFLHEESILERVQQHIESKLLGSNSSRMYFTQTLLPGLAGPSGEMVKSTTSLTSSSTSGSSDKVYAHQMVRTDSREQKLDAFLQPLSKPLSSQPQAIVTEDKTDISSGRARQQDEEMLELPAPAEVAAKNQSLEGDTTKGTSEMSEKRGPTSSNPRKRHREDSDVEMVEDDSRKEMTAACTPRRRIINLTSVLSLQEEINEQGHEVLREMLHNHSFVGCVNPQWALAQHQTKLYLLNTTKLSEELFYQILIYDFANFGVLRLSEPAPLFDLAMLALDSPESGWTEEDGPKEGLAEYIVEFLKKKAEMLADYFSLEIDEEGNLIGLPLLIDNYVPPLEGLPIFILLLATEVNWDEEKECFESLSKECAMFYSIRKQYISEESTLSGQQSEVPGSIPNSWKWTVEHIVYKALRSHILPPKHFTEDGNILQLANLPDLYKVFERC
The assay is described as follows: co-IP. The following applies: remark: other sources report otherwise.

B1: PMS2, P54278 1-862 (natural protein)
chain: MERAESSSTEPAKAIKPIDRKSVHQICSGQVVLSLSTAVKELVENSLDAGATNIDLKLKDYGVDLIEVSDNGCGVEEENFEGLTLKHHTSKIQEFADLTQVETFGFRGEALSSLCALSDVTISTCHASAKVGTRLMFDHNGKIIQKTPYPRPRGTTVSVQQLFSTLPVRHKEFQRNIKKEYAKMVQVLHAYCIISAGIRVSCTNQLGQGKRQPVVCTGGSPSIKENIGSVFGQKQLQSLIPFVQLPPSDSVCEEYGLSCSDALHNLFYISGFISQCTHGVGRSSTDRQFFFINRRPCDPAKVCRLVNEVYHMYNRHQYPFVVLNISVDSECVDINVTPDKRQILLQEEKLLLAVLKTSLIGMFDSDVNKLNVSQQPLLDVEGNLIKMHAADLEKPMVEKQDQSPSLRTGEEKKDVSISRLREAFSLRHTTENKPHSPKTPEPRRSPLGQKRGMLSSSTSGAISDKGVLRPQKEAVSSSHGPSDPTDRAEVEKDSGHGSTSVDSEGFSIPDTGSHCSSEYAASSPGDRGSQEHVDSQEKAPKTDDSFSDVDCHSNQEDTGCKFRVLPQPTNLATPNTKRFKKEEILSSSDICQKLVNTQDMSASQVDVAVKINKKVVPLDFSMSSLAKRIKQLHHEAQQSEGEQNYRKFRAKICPGENQAAEDELRKEISKTMFAEMEIIGQFNLGFIITKLNEDIFIVDQHATDEKYNFEMLQQHTVLQGQRLIAPQTLNLTAVNEAVLIENLEIFRKNGFDFVIDENAPVTERAKLISLPTSKNWTFGPQDVDELIFMLSDSPGVMCRPSRVKQMFASRACRKSVMIGTALNTSEMKKLITHMGEMDHPWNCPHGRPTMRHIANLGVISQN
B1 returned a co-precipitated PMS2 in relation to wild-type (% of wild-type) of 77.
